In WO2013125221A1 (dated 2013):

Molecular target: T1, MBP-IGKVDJ3-6×His (MBP fusion human antibody kappa light chain variable region protein, family 3 consensus)
T1 construct: also called MBP-VK3
Experiment: SPR (legend of Fig. 12B), control MBP

T1 sequence (chain, as listed by the source): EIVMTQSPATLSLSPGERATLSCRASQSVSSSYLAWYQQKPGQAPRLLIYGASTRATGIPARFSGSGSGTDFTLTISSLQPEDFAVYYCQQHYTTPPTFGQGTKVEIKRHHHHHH

WHWNWMRLDPMT [code 15 peptide]: binds.
